The results in this text go back to the nanobody polyreactivity screen of Harvey et al. (2022).

The nature of this series: yeast display, Sf9 membrane polyspecificity reagent, FACS + sequencing; frameworks hold sequencing errors. In a few lines: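 Nanobodies came from a synthetic yeast display library in Saccharomyces cerevisiae BJ5465, induced with galactose for 36–48 hours and stained for 1 hour at 4 °C with 10% biotinylated, detergent-solubilized Sf9 membrane reagent. Cells were enriched on streptavidin microbeads and then FACS-sorted, with low and high (top ~1%) gates set on anti-HA fluorescence for expression and streptavidin fluorescence for reagent binding. Each polyreactivity label reflects the gate a clone came from. Genes were amplified by colony PCR, sequenced by MiSeq 2 × 250 and filtered by CDR length.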
Regarding “QVQLVESGGGLVQAGGSLRLSCAASGLIFGYYAMGWYRQAPGTEREFVAAIDGSDGTTYYADSVKGRFTISRDNAKNTVYLQMNSLKPEDTAVYYCNAESSSYSCDMGYDYWGQGTQVTVSS”, the “polyreactivity (PSR sort gate)” value is recorded as “low polyreactivity”.

For “QVQLVESGGGLVQAGGSLRLSCAASGLIFGYYGMGWYRQAPGKERELVAVITDDDSTTYADSVKGRFTISRDNAKNTVYLLMNSLKPEDTAVYYCNADNLLGRFDSWGQGTQVTVSS”, the “polyreactivity (PSR sort gate)” value was “low polyreactivity”. Under “QVQLVESGGGLVQAGGSLRLSCAASGLIFHNNAMGWYRQAPGKERELVARITRSCGSTYYADSVKGRFTISRDNAKNTFYLQMNSLKPEDTAVYYCATDALFDSGGMDYWGQGTQVTVSS” stands “low polyreactivity”. Regarding “QVQLVESGGGLVQAGGSLRLSCAASGLIFIAYAMGWYRQAPGKERELVAAISSSGGSTYYADSVKGPFTISRDNAKNTFYLQMNSLKPEDTGVYYCAADRFDWGTGRYGYWVQGTQVTVSS”, the “polyreactivity (PSR sort gate)” value was “low polyreactivity”.

Take “QVQLVESGGGLVQAGGSLRLSCAASGLIFIAYSMGWYRQAPGKEREFVAAITWNGVSTYYADSVKGRFTISRDNAKNTVYLQMNSLKPEDTAVYDCNADYDFSPWAYEYWGQGTQVTVSS”: the “polyreactivity (PSR sort gate)” value is listed as “high polyreactivity”. The result for “QVQLVESGGGLVQAGGSLRLSCAASGLIFIKNAMGWYRQAPGKERELVAAITRGSSTTYADSVKGRFTISRDNAKNTVYLQMNSLKPEDPAVYYCAAQYGGGYLKPYRREYWGQGTQVTVSS” reads “high polyreactivity”. Under “QVQLVESGGGLVQAGGSLRLSCAASGLIFKKYTMGWYRQAPGKERELVASISKSGGSTYYADSVKGRFTISRDNAKNTVYLLMNSLKPDDTAVYYCAVGSTDRVSAQGSYFTYDYWGQGTQVNVSS” stands “low polyreactivity”. “QVQLVESGGGLVQAGGSLRLSCAASGLIFKSYAMGWYRQAPGKERELVATISSSGSTNYADSVKGRFTISRDNAKNTVYLQMNSLKPEDTAVYYCNADDEVWWWIYDYWGQGTQVTVSS”: the “polyreactivity (PSR sort gate)” value is listed as “low polyreactivity”. The result for “QVQLVESGGGLVQAGGSLRLSCAASGLIFKVYAMGWYRQAPWKERELVAAITYSGGSTDYADSVKGRFTISRDNAKNTVYLQMNSLTPEDTAVYYCNVEKVGHVNSYGYDYWGQGTQVNVSS” reads “low polyreactivity”.

“QVQLVESGGGLVQAGGSLRLSCAASGLIFKYNAMGWYRQAPGKERELVAAISTSGGSTYYADSVKGRFTISRDNAKNTVYLQMNSLKPEDTAVYYCNAVAGRPFRYYYWGQGTQVTVSS”: the “polyreactivity (PSR sort gate)” value was “high polyreactivity”. The result for “QVQLVESGGGLVQAGGSLRLSCAASGLIFKYNDMGWYRQAPGTEREFVAAISWRGGRTYYADSVKGRFTISRDNEKNTVYLQMNSLKPEDTAVYYCNAGYRIAQFPSPHIAYYGYGYWGQGTQVTVSS” reads “high polyreactivity”. On to “QVQLVESGGGLVQAGGSLRLSCAASGLIFLWYVMGWYRQAPGKEREFVAAISWNGGGTYYADSVKGRFTISRDNAKNTVYLQMNSLKPDDTAVYYCAAQTYSNDYWGQGTQVTVSS”, for which the “polyreactivity (PSR sort gate)” value is listed as “low polyreactivity”.

In the case of “QVQLVESGGGLVQAGGSLRLSCAASGLIFNIYAMGWYRQAPGKERELVAAISKSGGSTYYADSVKGRFTISRDNAKNTVYLQMNSLKPEDTAVYYCAAPYLVRSQRYYYWGQGTQVTVSS”, the “polyreactivity (PSR sort gate)” value was “high polyreactivity”. With “QVQLVESGGGLVQAGGSLRLSCAASGLIFPRYGMGWYRQAPGKERELVAAISWSGGSTYYADSVKGRFTISRDNAKNTVYLQMNSLKPEDTAVYYCAVLSNRGVYGSDYWGQGTQVTVSS”, the “polyreactivity (PSR sort gate)” value is reported as “high polyreactivity”.

For “QVQLVESGGGLVQAGGSLRLSCAASGLIFPSYAMGWYRQAPGKERELVATINRGSRTNYADSVKGRFTISRDNAKNTVYLQMNSLKPEDTAVYYCAAHYTTFIPSPDGDYLGQGTQVTVSS”, the “polyreactivity (PSR sort gate)” value is reported as “low polyreactivity”. The result for “QVQLVESGGGLVQAGGSLRLSCAASGLIFPYYALGWYRQAPGKERELVAAISWRGGNTYYADSVKGRFTISRDNAKNTVYLQMNSLKPEDTAVYYCNTVQYRNEMGYWGQGTQVTVSS” reads “high polyreactivity”; that for “QVQLVESGGGLVQAGGSLRLSCAASGLIFQHNAMGWYRQAPGKEMELVAAISRSAGSTYYADSVKGRFTISRDKAKNTVYLQMNSLKPEDTAVYYCARQYGYQPVRYGYWGQGTQVTVSS”, “low polyreactivity”; that for “QVQLVESGGGLVQAGGSLRLSCAASGLIFQYYAMGWYRQAPGKERELVAAISGSGVRSYYADSVKGRFTTSRDNAKNTVYLQMNSLKPEDTAVYYCNTLRQDIIRGDYWGQGTHVTVSS”, “high polyreactivity”.

Take “QVQLVESGGGLVQAGGSLRLSCAASGLIFQYYAMGWYRQAPGKERELVASISGSGSSTYYADSVKGRFTISRDNEKNTVYLQMYSLKPEDTAVYYCAAGWGRGWYDYWGQGTQVTVSS”: the “polyreactivity (PSR sort gate)” value is recorded as “high polyreactivity”. On to “QVQLVESGGGLVQAGGSLRLSCAASGLIFRPYAMGGYRQAPGKARELVAAITSGGSTDYADSLKGRFTISRDNAKNTVYLQMNSLNPEDTAVFYCNADFYPHDGYPWQGDYDYWGQGTQVTVSS”, for which the “polyreactivity (PSR sort gate)” value is reported as “low polyreactivity”. Under “QVQLVESGGGLVQAGGSLRLSCAASGLIFRRYAMGWYRQAPGKERELVAAINLSGGSTYYADSVKGRFTISRDNAKNTVYLQMNSLKPEDTAVYYCNAVSVYSLPRVGGRYDYWGQGTQVTVSS” stands “high polyreactivity”; under “QVQLVESGGGLVQAGGSLRLSCAASGLIFRRYTMGWYGQGPGKERELVAAITSSGGNTYYADSVKGRFTISRDNAKNTVYLQMNSLKPEDTAVYYCNNPGTHNYYYWGQGTQVTVSS”, “high polyreactivity”; under “QVQLVESGGGLVQAGGSLRLSCAASGLIFSAYDMGWYRQAPGKERELVASITSGGSTYYADSVKGRFTISRDNAKNTVYLQMNSLKPEDTAVYYCNADGGWYPYRWRYIEGEYWGQGTQVTVSS”, “low polyreactivity”. Under “QVQLVESGGGLVQAGGSLRLSCAASGLIFSDNAMGWYRQARGKEREFVASISDSGTTTYYADSVKGRFTISRDNAKNTVYLQMNSLKPEDTAVYDCNARPGQSGARFGYWGQGTQVTVSS” stands “high polyreactivity”; under “QVQLVESGGGLVQAGGSLRLSCAASGLIFSFYAMGWYRKAPGKERELVATISNTDSTNYADSVKGRFTISRDNAKNTVYLQMNRLKPEDTAVYYCAADVWDGRYLYTGVYDYWGQGTQVTVSS”, “low polyreactivity”; under “QVQLVESGGGLVQAGGSLRLSCAASGLIFSKNVMGRYRQAPGKERELVAAISQRGGSTYYADSVKGRFTISRDNAKNTVYLQMNSLKPEDTAVYYCAADNTVSHEDYWGQGTQVTVSS”, “high polyreactivity”. Take “QVQLVESGGGLVQAGGSLRLSCAASGLIFSRNAMGRYRQAPGKERELVAAITTGGSTYYADSVKGRFTISRDNAKNTVYLQMNSLKPEDTAVYYCAAAPGYIYEYWGQGTQVTVSS”: the “polyreactivity (PSR sort gate)” value is reported as “low polyreactivity”.

Take “QVQLVESGGGLVQAGGSLRLSCAASGLIFSRYAMGWYRQAPGKERELVAAITYRTVRTYYADSVKGRFTISRDNAKNTVYLQMNSLKPEDTAVYYCAADSARQRDYWGQGTQVTVSS”: the “polyreactivity (PSR sort gate)” value is recorded as “high polyreactivity”. Under “QVQLVESGGGLVQAGGSLRLSCAASGLIFSSNAMGWYRQAPGKERELVAAISSRGGRTYYADSVKGRFTISRDNAKNTVYLQMNSLKPEDTAVYYCAKYFTEVSRHTYDYWGQVTQVTVSS” stands “high polyreactivity”. On to “QVQLVESGGGLVQAGGSLRLSCAASGLIFSSNVMGWYRQAPGKERQLVAAIRQRGGSTRYADSVKGRFTISRDNAKNTVYLQMNSLKPEDTEVYYCAADTYYSHSWDSYDYWGQGTQVTVSS”, for which the “polyreactivity (PSR sort gate)” value was “low polyreactivity”.

As to “QVQLVESGGGLVQAGGSLRLSCAASGLIFSTYAMGWYRQAPGKERELVASISSSGGSTYYADSVKGRFTISRDNAKNTVYLQMNSLKPEDTAVYYCAAVTKRYQPTYYITYGYWGQGTQVTVSS”, the “polyreactivity (PSR sort gate)” value is “high polyreactivity”.

On to “QVQLVESGGGLVQAGGSLRLSCAASGLIFSYSALAWYRQAPGKERELVGSMSTSGGNTNYADSVKGRFTISRDNAKNTVYVQMNSVKPVDTAVYYCAAGIGKQYHTGYPTAGRKYGYWGQGTQVTVSS”, for which the “polyreactivity (PSR sort gate)” value is recorded as “high polyreactivity”.

As for “QVQLVESGGGLVQAGGSLRLSCAASGLIFSYYAMGWYRQAPGKERELVAAITGSGGTTYYADSVKGRFTISRDNAKNTVYLQMNSLKPEDTAVYYCATPPPEVWQRWYREYDYWGQGTQVTVSS”, the “polyreactivity (PSR sort gate)” value is “low polyreactivity”.

Turning to “QVQLVESGGGLVQAGGSLRLSCAASGLIFSYYAMGWYRQAPGKERELVGAITGSGGSTYYADSVKGRFTISRDNAKNTVYLQMNSLKPEDTAVYYCAAGRYAYTLSRKYDYWGQGTQVTVSS”, the “polyreactivity (PSR sort gate)” value was “high polyreactivity”. As for “QVQLVESGGGLVQAGGSLRLSCAASGLIFSYYPMGWYRQAPGKERELVAAITGSGGTTYYADSVKGRFTISRDNAKNTVYLQMNSLKPEDTAVYYCATSPPEVWQRWYREYDYWGQVTQVTVSS”, the “polyreactivity (PSR sort gate)” value is listed as “low polyreactivity”. Under “QVQLVESGGGLVQAGGSLRLSCAASGLIFSYYVMGWYRPAPGKERELVAAINRSGGSTYYADSVKGRFTISRDNAKNTVYLQMNSLKPEDTAVYYCAAEKLGTNFEYWGQGTQVTVSS” stands “high polyreactivity”; under “QVQLVESGGGLVQAGGSLRLSCAASGLIFTDYAMGWYRQAPGKDRELVATITARGGDTYYADSVKGRFTISRDNAKNTVYLQMNSLKPEDTAVYYCAAEYLSGGEAGMYYWGQGTQVTVSS”, “low polyreactivity”; under “QVQLVESGGGLVQAGGSLRLSCAASGLIFTRYTMGWYRQAPGKERELVAGISWSGGRTYYADSVKGRFTISRDKAKYTVYLQMNSLKPEDTAVYYCAADSYYSRAYDYWGQGTQVTVSS”, “high polyreactivity”.

Take “QVQLVESGGGLVQAGGSLRLSCAASGLIFTSYAMGWYRQATGKERELVAAISGSAASTYYADSVKGRFTISRDNAKNTVYLQMNSLKPEDTAVYYCAADYQGYTPSDGRYYWGQGTQVTVSS”: the “polyreactivity (PSR sort gate)” value is reported as “low polyreactivity”. “QVQLVESGGGLVQAGGSLRLSCAASGLIFTVNTMGWYRQAPGKERELVATIHTIGDGTNYADSVKGRFTISRDNAKNTVYLQMNSLKPEDTAVYYCAAYAGSVRPGDLYGYDYWGQGTQVTVSS”: the “polyreactivity (PSR sort gate)” value was “low polyreactivity”.
